B1: F3.121.4-L2H3 (antibody, mouse IgG1, kappa)
heavy: EVQLVQSGAEVKKPGASVKVSCKASGYTFTNYWMHWVRQRPGQGLEWMGEIDPSDNYANYNQEFQGRVTITVDKSASTAYMELSSLRSEDTAVYYCARHDGYFGALDYWGQGTTVTVSSAKTTPPSVYPLAPGSAAQTNSMVTLGCLVKGYFPEPVTVTWNSGSLSSGVHTFPAVLQSDLYTLSSSVTVPSSTWPSETVTCNVAHPASSTKVDKKIVPRDCGCKPCICTVPEVSSVFIFPPKPKDVLTITLTPKVTCVVVDISKDDPEVQFSWFVDDVEVHTAQTQPREEQFNSTFRSVSELPIMHQDWLNGKEFKCRVNSAAFPAPIEKTISKTKGRPKAPQVYTIPPPKEQMAKDKVSLTCMITDFFPEDITVEWQWNGQPAENYKNTQPIMDTDGSYFVYSKLNVQKSNWEAGNTFTCSVLHEGLHNHHTEKSLSHSPGK
light: EIVLTQSPDFQSVTPKEKVTITCSASSSISSNYLHWYQQKPDQSPKLLIKRTSNLASGVPSRFSGSGSGTDFTLTINSLEAEDAATYYCQQASSIPRMFTFGQGTKLEIKRADAAPTVSIFPPSSEQLTSGGASVVCFLNNFYPKDINVKWKIDGSERQNGVLNSWTDQDSKDSTYSMSSTLTLTKDEYERHNSYTCEATHKTSTSPIVKSFNRNEC
notes: murine IgG1 constant regions; also called humanized antibody of F3.121.4
B2: F3.121.4-L2H4 (antibody, mouse IgG1, kappa)
heavy: EVQLQQSGAEVKKPGASVKVSCKASGYTFTNYWMHWVRQRPGQGLEWMGEIDPSDNYANYNQEFQGRVTITVDKSASTAYMELSSLRSEDTAVYYCARHDGYFGALDYWGQGTTVTVSSAKTTPPSVYPLAPGSAAQTNSMVTLGCLVKGYFPEPVTVTWNSGSLSSGVHTFPAVLQSDLYTLSSSVTVPSSTWPSETVTCNVAHPASSTKVDKKIVPRDCGCKPCICTVPEVSSVFIFPPKPKDVLTITLTPKVTCVVVDISKDDPEVQFSWFVDDVEVHTAQTQPREEQFNSTFRSVSELPIMHQDWLNGKEFKCRVNSAAFPAPIEKTISKTKGRPKAPQVYTIPPPKEQMAKDKVSLTCMITDFFPEDITVEWQWNGQPAENYKNTQPIMDTDGSYFVYSKLNVQKSNWEAGNTFTCSVLHEGLHNHHTEKSLSHSPGK
light: EIVLTQSPDFQSVTPKEKVTITCSASSSISSNYLHWYQQKPDQSPKLLIKRTSNLASGVPSRFSGSGSGTDFTLTINSLEAEDAATYYCQQASSIPRMFTFGQGTKLEIKRADAAPTVSIFPPSSEQLTSGGASVVCFLNNFYPKDINVKWKIDGSERQNGVLNSWTDQDSKDSTYSMSSTLTLTKDEYERHNSYTCEATHKTSTSPIVKSFNRNEC
notes: as for B1
B3: F3.121.4-L3H1 (antibody, mouse IgG1, kappa, V domains shown)
VH: EVQLVQSGAEVKKPGASVKVSCKASGYTFTNYWMHWVRQAPGQRLEWMGEIDPSDNYANYNQEFQGRVTITVDKSASTAYMELSSLRSEDTAVYYCARHDGYFGALDYWGQGTTVTVSS
VL: EIVLTQSPDFQSVTPKEKVTITCSASSSISSNYLHWYQQKPDQSPKFLIYRTSNLASGVPSRFSGSGSGTDFTLTINSLEAEDAATYYCQQASSIPRMFTFGQGTKLEIKR
notes: as for B1
B4: F3.121.4-L3H2 (antibody, mouse IgG1, kappa, V domains shown)
VH: EVQLVQSGAEVKKPGASVKVSCKASGYTFTNYWMHWVRQAPGQGLEWMGEIDPSDNYANYNQEFQGRVTITVDKSASTAYMELSSLRSEDTAVYYCARHDGYFGALDYWGQGTTVTVSS
VL: EIVLTQSPDFQSVTPKEKVTITCSASSSISSNYLHWYQQKPDQSPKFLIYRTSNLASGVPSRFSGSGSGTDFTLTINSLEAEDAATYYCQQASSIPRMFTFGQGTKLEIKR
notes: as for B1
B5: F3.121.4-L3H3 (antibody, mouse IgG1, kappa)
heavy: EVQLVQSGAEVKKPGASVKVSCKASGYTFTNYWMHWVRQRPGQGLEWMGEIDPSDNYANYNQEFQGRVTITVDKSASTAYMELSSLRSEDTAVYYCARHDGYFGALDYWGQGTTVTVSSAKTTPPSVYPLAPGSAAQTNSMVTLGCLVKGYFPEPVTVTWNSGSLSSGVHTFPAVLQSDLYTLSSSVTVPSSTWPSETVTCNVAHPASSTKVDKKIVPRDCGCKPCICTVPEVSSVFIFPPKPKDVLTITLTPKVTCVVVDISKDDPEVQFSWFVDDVEVHTAQTQPREEQFNSTFRSVSELPIMHQDWLNGKEFKCRVNSAAFPAPIEKTISKTKGRPKAPQVYTIPPPKEQMAKDKVSLTCMITDFFPEDITVEWQWNGQPAENYKNTQPIMDTDGSYFVYSKLNVQKSNWEAGNTFTCSVLHEGLHNHHTEKSLSHSPGK
light: EIVLTQSPDFQSVTPKEKVTITCSASSSISSNYLHWYQQKPDQSPKFLIYRTSNLASGVPSRFSGSGSGTDFTLTINSLEAEDAATYYCQQASSIPRMFTFGQGTKLEIKRADAAPTVSIFPPSSEQLTSGGASVVCFLNNFYPKDINVKWKIDGSERQNGVLNSWTDQDSKDSTYSMSSTLTLTKDEYERHNSYTCEATHKTSTSPIVKSFNRNEC
notes: as for B1
B6: F3.121.4-L3H4 (antibody, mouse IgG1, kappa)
heavy: EVQLQQSGAEVKKPGASVKVSCKASGYTFTNYWMHWVRQRPGQGLEWMGEIDPSDNYANYNQEFQGRVTITVDKSASTAYMELSSLRSEDTAVYYCARHDGYFGALDYWGQGTTVTVSSAKTTPPSVYPLAPGSAAQTNSMVTLGCLVKGYFPEPVTVTWNSGSLSSGVHTFPAVLQSDLYTLSSSVTVPSSTWPSETVTCNVAHPASSTKVDKKIVPRDCGCKPCICTVPEVSSVFIFPPKPKDVLTITLTPKVTCVVVDISKDDPEVQFSWFVDDVEVHTAQTQPREEQFNSTFRSVSELPIMHQDWLNGKEFKCRVNSAAFPAPIEKTISKTKGRPKAPQVYTIPPPKEQMAKDKVSLTCMITDFFPEDITVEWQWNGQPAENYKNTQPIMDTDGSYFVYSKLNVQKSNWEAGNTFTCSVLHEGLHNHHTEKSLSHSPGK
light: EIVLTQSPDFQSVTPKEKVTITCSASSSISSNYLHWYQQKPDQSPKFLIYRTSNLASGVPSRFSGSGSGTDFTLTINSLEAEDAATYYCQQASSIPRMFTFGQGTKLEIKRADAAPTVSIFPPSSEQLTSGGASVVCFLNNFYPKDINVKWKIDGSERQNGVLNSWTDQDSKDSTYSMSSTLTLTKDEYERHNSYTCEATHKTSTSPIVKSFNRNEC
notes: as for B1

What was measured:
[1] = biological target: T1, human CD19 exon1-3-his protein (human, UniProt P15391 20-186, limits assumed); assay: ELISA, coated at 2 ug/mL
T1 construct: made in HEK293E cells; also called membrane-distal end; not shown: His tag
T1 sequence (looked up): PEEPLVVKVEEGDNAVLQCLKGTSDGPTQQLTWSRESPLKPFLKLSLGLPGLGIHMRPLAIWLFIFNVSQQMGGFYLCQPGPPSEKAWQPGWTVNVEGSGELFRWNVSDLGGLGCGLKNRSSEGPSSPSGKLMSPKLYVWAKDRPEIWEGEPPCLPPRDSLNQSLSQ

murine CD19 protein = biological target: T2, murine CD19 protein (murine, UniProt P25918 17-287, limits assumed); assay: ELISA
T2 construct: bought protein; also called commercial murine CD19
T2 sequence (looked up): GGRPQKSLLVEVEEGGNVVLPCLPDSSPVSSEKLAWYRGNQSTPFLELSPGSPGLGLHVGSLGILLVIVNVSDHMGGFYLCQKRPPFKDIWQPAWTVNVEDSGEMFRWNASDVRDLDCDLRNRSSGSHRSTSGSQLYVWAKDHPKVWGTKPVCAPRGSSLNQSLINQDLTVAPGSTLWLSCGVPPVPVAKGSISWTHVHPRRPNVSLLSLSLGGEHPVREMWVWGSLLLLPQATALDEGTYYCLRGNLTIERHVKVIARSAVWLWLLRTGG
Protocol: Human CD19-his protein (purchased from ACROBiosystems, catalog number: CD9-H52H2) was diluted with PBS to a final concentration of 4 μg/mL, and then added to a 96-well ELISA plate at 100 μl/well. The plate was sealed with a plastic film and incubated overnight at 4° C., the plate was washed 2 times with PBS the next day, and then a blocking solution [PBS+2% (w/w) BSA] was added for blocking at room temperature for 2 h. The blocking solution was poured off, and 100 nM gradiently diluted CD19 chimeric antibody or control antibody was added at 50 μl/well. After incubation at 37° C. for 2 h, the plate was washed 3 times with PBS. […] TMB substrate was added at 50 μl/well, and incubated at room temperature for 10 min, and then a stop solution (1.0 N HCl) was added at 50 μl/well. The OD450 nm values were read by an ELISA microplate reader (Multimode Plate Reader, EnSight, purchased from Perkin Elmer).
In order to detect the species cross-binding activity of the chimeric antibodies, an ELISA plate was coated with commercial murine CD19 (ACROBiosystems, catalog number: 50510-M08H) and monkey CD19 (ACROBiosystems, catalog number: 90051-C08H), respectively, and the ELISA detection was performed according to the method in example 5.1. […]

Binder	binding result [1]	binding result (murine CD19 protein)
B1	no binding	no binding
B2	no binding	no binding
B3	no binding	no binding
B4	no binding	no binding
B5	no binding	no binding
B6	no binding	no binding

— patent publication US20250042994A1 (HAINAN SIMCERE ZAIMING PHARMACEUTICAL, published 2025)
